From the supplement of paper PMC10567573

B1: RBBP5 (parent)
chain: TGTSNTTAIKSIEFARKGSCFLIN

Variants of: B1
Experiment: protein stability index of a GFP-peptide fusion (GPS, HEK-293T) (PSI 1-6); higher = more stable
Conditions: c terminus: a fixed tail appended
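Further: lentivirally expressed fusions sorted by FACS into six bins by GFP to DsRed ratio, PSI derived from sequencing read proportions per bin multiplied by bin number.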

Variant | protein stability index
TGTSNTTAIKSIEFARKGSCFLIE [N24E] | 3.01
TGTSNTTAIKKIEFARKGSCFLIN [S11K] | 2.13
EGTSNTTAIKSIEFARKGSCFLIN [T1E] | 3.07
TGTSNTTAIKNIEFARKGSCFLIN [S11N] | 2.92
TGTSNTTAHKSIEFARKGSCFLIN [I9H] | 2.35
TGDSNTTAIKSIEFARKGSCFLIN [T3D] | 2.46
TGTSNTTAIKSIEFARKGWCFLIN [S19W] | 1.94
TGTSDTTAIKSIEFARKGSCFLIN [N5D] | 2.35
TGTSNTTAIKSIEFARIGSCFLIN [K17I] | 1.29
TGTSNTTAIKSIEFARKGSGFLIN [C20G] | 2.49
VGTSNTTAIKSIEFARKGSCFLIN [T1V] | 1.87
TGGSNTTAIKSIEFARKGSCFLIN [T3G] | 2.24
TGTSNTDAIKSIEFARKGSCFLIN [T7D] | 2.3
TGTSNTTAIKSIEFARKPSCFLIN [G18P] | 2.35
TGTSNTTAIKSIEFARKGSFFLIN [C20F] | 1.9
TGTSNTTAIKSIEFARKFSCFLIN [G18F] | 1.99
TSTSNTTAIKSIEFARKGSCFLIN [G2S] | 2.11
TGTSNTTAIGSIEFARKGSCFLIN [K10G] | 2.19
TGYSNTTAIKSIEFARKGSCFLIN [T3Y] | 1.94
TGTSNTTAIKSIEFARKGYCFLIN [S19Y] | 1.26
TGTSNTNAIKSIEFARKGSCFLIN [T7N] | 2.14
TGTSNTTAIKSIELARKGSCFLIN [F14L] | 2.51
TGTSNTTAIKSIEFAPKGSCFLIN [R16P] | 2.34
TGTSNTTAIKSIEFARKGSCFLIL [N24L] | 2.22

Variant | protein stability index
TGTSNTTAIKSIEFARKVSCFLIN [G18V] | 3.95
TGTSNTTTIKSIEFARKGSCFLIN [A8T] | 2.68
TGTSNTTAIKSIEFARKGSCHLIN [F21H] | 2.86
TGTSNTVAIKSIEFARKGSCFLIN [T7V] | 1.96
TGTSNTTAIKSIEFARKGSCALIN [F21A] | 3.36
TGTSNTTAIASIEFARKGSCFLIN [K10A] | 1.64
TGTSNYTAIKSIEFARKGSCFLIN [T6Y] | 1.87
TGTSNTTDIKSIEFARKGSCFLIN [A8D] | 2.36
RGTSNTTAIKSIEFARKGSCFLIN [T1R] | 2.75
TGTSNTTAIDSIEFARKGSCFLIN [K10D] | 2.08
TGTSNTTAIKGIEFARKGSCFLIN [S11G] | 2.12
TGTSSTTAIKSIEFARKGSCFLIN [N5S] | 2.02
TGTSNTTAIKSIFFARKGSCFLIN [E13F] | 2.75
TGTSNTTAIKSIEFARKNSCFLIN [G18N] | 2.18
TGTSNTTAIKSIEFARQGSCFLIN [K17Q] | 2.5
TGTQNTTAIKSIEFARKGSCFLIN [S4Q] | 2.54
TGTSNTTAIKSITFARKGSCFLIN [E13T] | 2.31
TGTSNTTAIKSIEDARKGSCFLIN [F14D] | 3.15
TGTSNQTAIKSIEFARKGSCFLIN [T6Q] | 2.12
TGTSNTTAIKSIEFARKGSMFLIN [C20M] | 2.01
TGTSNTTAIKSIEFARKGSWFLIN [C20W] | 1.63
TGTWNTTAIKSIEFARKGSCFLIN [S4W] | 1.83
TGTSLTTAIKSIEFARKGSCFLIN [N5L] | 1.9
TGTSNTTAIKSIYFARKGSCFLIN [E13Y] | 2.6

Variant | protein stability index
TGTSNTTAIKSIQFARKGSCFLIN [E13Q] | 1.67
TGTSNTTAIKVIEFARKGSCFLIN [S11V] | 2.48
TGTSNTTAIKSAEFARKGSCFLIN [I12A] | 2.94
PGTSNTTAIKSIEFARKGSCFLIN [T1P] | 2.47
TGTSYTTAIKSIEFARKGSCFLIN [N5Y] | 1.63
TGTSNDTAIKSIEFARKGSCFLIN [T6D] | 2.55
TCTSNTTAIKSIEFARKGSCFLIN [G2C] | 2.17
TGTSNTTAIKSIEFIRKGSCFLIN [A15I] | 1.63
TGTSNTTAIKSIEFARWGSCFLIN [K17W] | 2.11
TGTSFTTAIKSIEFARKGSCFLIN [N5F] | 2.2
TGTSNHTAIKSIEFARKGSCFLIN [T6H] | 2.67
TGTSNTTAIKSIEFARKTSCFLIN [G18T] | 1.71
TGTSNTTAIKSIEFARSGSCFLIN [K17S] | 2.47
TGTSNTTAIKSIEIARKGSCFLIN [F14I] | 2.64
TGTSNTTAPKSIEFARKGSCFLIN [I9P] | 2.61
TGTSNTTAIKSIEFARLGSCFLIN [K17L] | 1.75
TGTSNNTAIKSIEFARKGSCFLIN [T6N] | 3.06
TGTSNTTAIKSIEFARKGSCFLIH [N24H] | 2.35
TGTSNTTAIKSIEFARKGSCFLIK [N24K] | 2.02
TGTSNTTAIKSIEFARKGSCFVIN [L22V] | 2.28
TGQSNTTAIKSIEFARKGSCFLIN [T3Q] | 2.11
TGTSNTTAIKSIERARKGSCFLIN [F14R] | 3.05
TGTSNTTAIKSIEFARKMSCFLIN [G18M] | 1.85
TGTSNTTAIKSIEFARKWSCFLIN [G18W] | 1.62

Variant | protein stability index
TGISNTTAIKSIEFARKGSCFLIN [T3I] | 1.83
TGTSNTTAIKSIEFARKGSQFLIN [C20Q] | 2.51
TGTSNTTAIKRIEFARKGSCFLIN [S11R] | 2.12
TGTSNTTAIKSIEFARRGSCFLIN [K17R] | 2.7
TGTSNTTAIKSIEFARKGSCFWIN [L22W] | 1.71
TGTSRTTAIKSIEFARKGSCFLIN [N5R] | 2.36
TGTSNGTAIKSIEFARKGSCFLIN [T6G] | 1.98
TGTSNTTAIKSIEFARCGSCFLIN [K17C] | 1.8
TGTSETTAIKSIEFARKGSCFLIN [N5E] | 2.57
TGTSNTTAIKSIEFARKGSCFLIQ [N24Q] | 1.79
TGTSNTTAIKSIDFARKGSCFLIN [E13D] | 2.32
TGTSNTTAIKSIEFARKGSCFLPN [I23P] | 2.82
TGTSNTTAIKSIAFARKGSCFLIN [E13A] | 1.92
TGTSVTTAIKSIEFARKGSCFLIN [N5V] | 2.38
TGTSNTTAVKSIEFARKGSCFLIN [I9V] | 2.76
TGMSNTTAIKSIEFARKGSCFLIN [T3M] | 2.2
TGTSNTTAIKSIEFYRKGSCFLIN [A15Y] | 1.74
TGTSNTTAIKSIEFARKGSCFLIR [N24R] | 2.09
TGTSNTTAIKSIEFERKGSCFLIN [A15E] | 2.44
TGTSNTTAIKSIEFARKGMCFLIN [S19M] | 1.59
TGTSNTTAIKSIEFARKSSCFLIN [G18S] | 2.32
TGTSNTTAIKSIEFASKGSCFLIN [R16S] | 2.44
